# Experimental data published in article PMC13425845.
# Legend:
# [1] = target: human γD-crystallin C18T/C32A/C41A/C78A (human); experiment: intact protein electrospray mass spectrometry; Bruker Impact II QTOF electrospray mass spectrometer with HPLC; isotopically averaged mass of monomer and dimer samples
# [2] = target: human γD-crystallin C18S/C32S/C41S/C78S (human); experiment: as above
Substance,stoichiometry N [1],stoichiometry N [2]
human γD-crystallin C18T/C32A/C41A/C78A (natural protein),2,–
human γD-crystallin C18S/C32S/C41S/C78S (natural protein),–,2
